{"source": "patent EP4711453A1", "about": "“PHENYLALANINE LYASE MUTANT, AND CONJUGATE THEREOF OR PHARMACEUTICALLY ACCEPTABLE SALT THEREOF” (Peg-Bio Biopharm Co., Ltd. (Chongqing), priority 2023, dated 2024)", "molecules": {"B1": {"name": "PL54-5: polyethylene glycol conjugate of PAL4 (SEQ ID NO: 6) with PEG-SPA-5K, molar ratio 1:16, average degree of modification 13.60 (conjugate)", "chain": "MKTLSQAQSKTSSQQFSFTGNSSANVIIGNQKLTINDVARVARNGTLVSLTNNTDILQGIQASCDYINNAVKSGEPIYGVTSGFGGMANVAISREQASELQTNLVWFLKTGAGNKLPLADVRAAMLLRANSHMRGASGIRLELIKRMEIFLNAGVTPYVYEFGSIGASGDLVPLSYITGSLIGLDPSFKVDFNGKEMDAPTALRQLNLSPLTLLPKEGLAMMNGTSVMTGIAANCVYDTKILTAIAMGVHALDIQALNGTNQSFHPFIHNSKPHPGQLWAADQMISLLANSQLVRDELDGKHDYRDHELIQDRYSLRCLPQYLGPIVDGISQIAKQIEIEINSVTDNPLIDVDNQASYHGGNFLGQYVGMGMDHLRYYIGLLAKHLDVQIALLASPEFSNGLPPSLLGNRERKVNMGLKGLQICGNSIMPLLTFYGNSIADRFPTHAEQFNQNINSQGYTSATLARKSVDIFQNYVAIALMFGVQAVDLRTYKKTGHYDARASLSPATERLYSAVRHVVGQKPTSDRPYIWNDNEQGLDEHIAKISADIAAGGVIVQAVQDILPSLH", "modifications": "PEG-SPA-5K conjugate, ~13.6 PEG per molecule"}}, "key": {"[1]": {"system": "anti-PAL protein antibodies", "assay": "Anti-PAL protein antibody in rat serum after multiple administrations (bridging ELISA)", "type": "in vivo", "details": "SD rats", "experimental": "To evaluate PEGylated conjugates of phenylalanine lyase or its mutants with different average degrees of modification, the inventors divided SD rats into four groups (n=6 per group). The animals were subcutaneously injected with PL54-1 and PL54-5 (average degrees of modification: 10.54 and 13.60, respectively) and PL5-1 and PL5-5 (average degrees of modification: 8.2 and 10.53, respectively) from Table 3 of Example 2 at a dose of 2 mg/kg once a week for four doses. Blood samples were collected on D1 (Day 1), D3 (Day 3), and D7 (Day 7) after the first dose, as well as on D3 and D7 following each subsequent dose. The concentrations of PL54-1, PL54-5, PL5-1, and PL5-5 in rat serum were determined by sandwich ELISA to assess plasma drug concentration maintenance after multiple administrations. Anti-PEG-IgM/IgG antibody titers in rat serum from each group were measured using indirect ELISA (coating with PEG-BSA, adding positive rat anti-PEG Abs/test serum samples, followed by HRP-conjugated anti-rat IgM/IgG detection), while bridging ELISA (coating with PAL protein, adding positive sheep anti-PAL Abs/acidified serum samples, followed by biotin-labeled PAL detection) was also performed. The plasma drug concentration results are shown in FIG. 4, and the antibody detection results after administration were shown in FIG. 4 and FIG. 5."}, "serum phenylalanine": {"system": "serum phenylalanine", "assay": "Comparative pharmacodynamics with Pegvaliase: serum phenylalanine after multiple administrations", "type": "in vivo", "details": "Pah^enu mice, 3 mg/kg s.c. once weekly; second to fourth administrations", "excerpt": "(§1) To evaluate the differences in pharmacodynamics and immunogenicity between the polyethylene glycol conjugate PL54-5 of directionally saturated modified phenylalanine lyase mutant and Pegvaliase (marketed drug), eight Pah^enu mice were allocated into two groups of four mice each, and administered with either PL54-5 (average degree of modification: 13.60, specific enzyme activity: 1.27 U/mg) from Table 3 of Example 2 or Pegvaliase Injection (manufactured by BioMarin, purchased lot number L161239, specification: 20 mg/mL/vial) at an administration dose of 3.0 mg/kg, once weekly via subcutaneous injection for four consecutive weeks. Blood samples were collected from each group of mice before administration and at 3 days and 7 days after each administration, respectively. Changes in serum phenylalanine concentration were measured (Reference: Judy Peat et al., Determination of Phenylalanine and Tyrosine by High Performance Liquid Chromatography-Tandem Mass Spectrometry) and anti-PEG-IgM/IgG antibody titers of each animal were determined at the end of the study (see Example 5 for details), to assess differences in pharmacodynamics and immunogenicity, as shown in FIG. 11 and FIG. 12."}, "[2]": {"assay": "Serum drug concentration after a single administration in phenylketonuria model mice (sandwich ELISA)", "type": "in vivo", "set-up": "Blood drug concentration in serum: unit not given here", "details": "Pah^enu mice", "excerpt": "Phenylalanine hydroxylase (PAH) was central to phenylalanine metabolism in animals, catalyzing the conversion of phenylalanine to tyrosine. Deficiency of this gene underlies phenylketonuria. […] Therefore, the homozygous mouse carrying the missense mutation F263S can be used as an animal model for phenylketonuria (referred to as the Pah^enu mouse or model mouse) in this drug study.\nTo evaluate the polyethylene glycol conjugate PL54 of the site-saturation modified phenylalanine lyase mutant, six Pah^enu mice were assigned to three groups of two mice each. PL54-5 (average degree of modification 13.60, specific enzyme activity 1.27 U/mg) from Table 3 of Example 2 was administered to the phenylketonuria animal model mice at low, medium, and high doses of 0.5 mg/kg, 1.5 mg/kg, and 4.5 mg/kg, respectively, via subcutaneous injection. Blood samples were collected from mice in each group at 1 h before administration and at 1, 3, 5, 7, 10, and 14 days after administration, respectively, and the content of PL54-5 in serum was detected by sandwich ELISA (for details, see Example 5)."}, "[3]": {"system": "anti-PEG IgG and IgM antibodies", "assay": "Comparative immunogenicity with Pegvaliase: anti-PEG IgG and IgM antibodies after multiple administrations", "type": "in vivo", "details": "Pah^enu mice, 3 mg/kg s.c. once weekly for four weeks", "excerpt": "as §1"}, "[4]": {"assay": "Specific enzyme activity of phenylalanine lyase (trans-cinnamic acid formation, absorbance at 290 nm)", "type": "biochemical", "experimental": "Phenylalanine lyase specifically catalyzes the conversion of phenylalanine into trans-cinnamic acid with the release of ammonia. […] Enzyme activity is defined as the amount of enzyme required to produce 1 µmol of trans-cinnamic acid per minute in buffer (100 mmol/L Tris-HCl, pH 8.5) at room temperature (25°C) as one unit of enzyme activity.\nThe specific enzyme activity of phenylalanine lyase and its mutants (i.e., PAL, PAL2, PAL3, and PAL4 proteins) prepared in Example 1 was evaluated by taking an appropriate amount of test sample and diluting it to 0.4 mg/ml using assay buffer (100 mmol/L Tris-HCl, pH 8.0). 2.9 ml of substrate solution (100 mmol/L Tris-HCl, 45 mmol/L Phe, pH 8.0) was placed in a cuvette, followed by addition of 0.1 ml of diluted test solution and immediate mixing. The changes in absorbance per minute were recorded at a wavelength of 290 nm, and the specific enzyme activity was calculated according to the formula. Enzyme activity (U/mg) = (AS−AO)VN × 10^6 /εLTV1 [formula]\nWhere AS and AO represent the absorbance of trans-cinnamic acid at the […] of the reaction, respectively; V is the total volume (L) of the reaction system; L is the optical path length of the cuvette (cm); ε is the molar extinction coefficient of trans-cinnamic acid (10238.1 L/(mol·cm)); T is the reaction time (min); N is the dilution factor of the test sample; V1 is the volume of test sample (ml).\nThe enzyme activity retention rate was calculated by comparing the specific enzyme activity of phenylalanine lyase mutants with the specific enzyme activity of the phenylalanine lyase. Table 2: Specific enzyme activity of phenylalanine lyase mutants\nThe specific enzyme activity of the polyethylene glycol conjugates of phenylalanine lyase and its mutants prepared in Step 1 of Example 2 was determined according to the method described in Step 1 of this example. The enzyme activity retention rate was calculated by comparing the specific enzyme activity of each conjugate with its specific enzyme activity prior to PEG modification (e.g., the enzyme activity retention rate of PL5-1 = specific enzyme activity of PL5-1 / specific enzyme activity of PAL protein). Table 3: Specific enzyme activity of PEGylated phenylalanine lyase mutants"}}, "note": "Several values for one entry are separate records, joined by “and”; a condition that tells them apart may be missing. Equal entries are not always repeated."}
{"molecule": "B1", "values": [{"measurement": "anti-PAL protein antibodies, positive rats", "setting": "[1]; serum dilution 1:10, 7 days after the fourth dose", "result": "1/6"}, {"measurement": "anti-PAL protein antibodies", "setting": "[1]; serum dilution 1:10, after the first dose", "result": "very weak positivity"}, {"measurement": "phenylalanine-lowering effect", "setting": "serum phenylalanine", "result": "consistently reduced phenylalanine levels on Day 3"}, {"measurement": "Blood drug concentration in serum", "setting": "[2]; single 0.5 mg/kg s.c., 1-D1, dilution 1:500", "result": 0.3}, {"measurement": "Blood drug concentration in serum", "setting": "[2]; single 0.5 mg/kg s.c., 1-D3, dilution 1:500", "result": 2.4}, {"measurement": "Blood drug concentration in serum", "setting": "[2]; single 0.5 mg/kg s.c., 1-D5, dilution 1:500", "result": 0.9}, {"measurement": "Blood drug concentration in serum", "setting": "[2]; single 0.5 mg/kg s.c., 1-D7, dilution 1:500", "result": 0.2}, {"measurement": "Blood drug concentration in serum", "setting": "[2]; single 0.5 mg/kg s.c., 1-D10, dilution 1:500", "result": 0.1}, {"measurement": "Blood drug concentration in serum", "setting": "[2]; single 0.5 mg/kg s.c., D0 (1 h before administration), dilution 1:50", "result": 0}, {"measurement": "Blood drug concentration in serum", "setting": "[2]; single 1.5mg/kg s.c., 1-D1, dilution 1:500, 1.5 mg/kg", "result": "0.5 and 0.6"}, {"measurement": "Blood drug concentration in serum", "setting": "[2]; single 1.5mg/kg s.c., 1-D3, dilution 1:500, 1.5 mg/kg", "result": "2.7 and 2.2"}, {"measurement": "Blood drug concentration in serum", "setting": "[2]; single 1.5mg/kg s.c., 1-D5, dilution 1:500", "result": 0.9}, {"measurement": "Blood drug concentration in serum", "setting": "[2]; single 1.5mg/kg s.c., 1-D7, dilution 1:500, 1.5 mg/kg", "result": "0.4 and 0.3"}, {"measurement": "Blood drug concentration in serum", "setting": "[2]; single 1.5mg/kg s.c., D0 (1 h before administration), dilution 1:50", "result": 0}, {"measurement": "Blood drug concentration in serum", "setting": "[2]; single 4.5 mg/kg s.c., 1-D1, dilution 1:500, 4.5 mg/kg", "result": "1.6 and 0.8"}, {"measurement": "Blood drug concentration in serum", "setting": "[2]; single 4.5 mg/kg s.c., 1-D3, dilution 1:500, 4.5 mg/kg", "result": "2.6 and 2.9"}, {"measurement": "Blood drug concentration in serum", "setting": "[2]; single 4.5 mg/kg s.c., 1-D5, dilution 1:500, 4.5 mg/kg", "result": "1.9 and 1.2"}, {"measurement": "Blood drug concentration in serum", "setting": "[2]; single 4.5 mg/kg s.c., 1-D7, dilution 1:500, 4.5 mg/kg", "result": "0.8 and 0.4"}, {"measurement": "Blood drug concentration in serum", "setting": "[2]; single 4.5 mg/kg s.c., 1-D10, dilution 1:500", "result": 0}, {"measurement": "Blood drug concentration in serum", "setting": "[2]; single 4.5 mg/kg s.c., 1-D14, dilution 1:500", "result": 0.2}, {"measurement": "Blood drug concentration in serum", "setting": "[2]; single 4.5 mg/kg s.c., D0 (1 h before administration), dilution 1:50", "result": 0}, {"measurement": "plasma drug concentration in relation to the administration dose", "setting": "[2]; single s.c. injection, 0.5, 1.5 and 4.5 mg/kg", "result": "directly proportional to the administration dose"}, {"measurement": "immunogenicity after long-term administration", "setting": "[3]", "result": "significantly lower immunogenicity than pegvaliase"}, {"measurement": "Enzyme activity retention rate", "setting": "[4]; conjugate compared with its protein prior to PEG modification", "result": 83, "unit": "%"}, {"measurement": "Specific enzyme activity", "setting": "[4]; polyethylene glycol conjugates, method as for the proteins", "result": 1.27, "unit": "U/mg"}]}
